As a reminder, the Kd is the concentration at which binding is half-saturated. A high value points to a looser complex.

Assay [1] has as its target T1, α4β7 integrin (human, UniProt P13612 34-970; P26010 20-723).
T1 construct: Heterodimer; also called alpha4beta7
Description: method not stated.

The target in assay [2] is T2, αEβ7 integrin (human, UniProt P38570 19-1124; P26010 20-723).
T2 construct: Heterodimer; also called alphaEbeta7; CD103 (αE subunit)
Description: method not stated.

T2 sequence (P38570 19-1124, chain 1 of 2): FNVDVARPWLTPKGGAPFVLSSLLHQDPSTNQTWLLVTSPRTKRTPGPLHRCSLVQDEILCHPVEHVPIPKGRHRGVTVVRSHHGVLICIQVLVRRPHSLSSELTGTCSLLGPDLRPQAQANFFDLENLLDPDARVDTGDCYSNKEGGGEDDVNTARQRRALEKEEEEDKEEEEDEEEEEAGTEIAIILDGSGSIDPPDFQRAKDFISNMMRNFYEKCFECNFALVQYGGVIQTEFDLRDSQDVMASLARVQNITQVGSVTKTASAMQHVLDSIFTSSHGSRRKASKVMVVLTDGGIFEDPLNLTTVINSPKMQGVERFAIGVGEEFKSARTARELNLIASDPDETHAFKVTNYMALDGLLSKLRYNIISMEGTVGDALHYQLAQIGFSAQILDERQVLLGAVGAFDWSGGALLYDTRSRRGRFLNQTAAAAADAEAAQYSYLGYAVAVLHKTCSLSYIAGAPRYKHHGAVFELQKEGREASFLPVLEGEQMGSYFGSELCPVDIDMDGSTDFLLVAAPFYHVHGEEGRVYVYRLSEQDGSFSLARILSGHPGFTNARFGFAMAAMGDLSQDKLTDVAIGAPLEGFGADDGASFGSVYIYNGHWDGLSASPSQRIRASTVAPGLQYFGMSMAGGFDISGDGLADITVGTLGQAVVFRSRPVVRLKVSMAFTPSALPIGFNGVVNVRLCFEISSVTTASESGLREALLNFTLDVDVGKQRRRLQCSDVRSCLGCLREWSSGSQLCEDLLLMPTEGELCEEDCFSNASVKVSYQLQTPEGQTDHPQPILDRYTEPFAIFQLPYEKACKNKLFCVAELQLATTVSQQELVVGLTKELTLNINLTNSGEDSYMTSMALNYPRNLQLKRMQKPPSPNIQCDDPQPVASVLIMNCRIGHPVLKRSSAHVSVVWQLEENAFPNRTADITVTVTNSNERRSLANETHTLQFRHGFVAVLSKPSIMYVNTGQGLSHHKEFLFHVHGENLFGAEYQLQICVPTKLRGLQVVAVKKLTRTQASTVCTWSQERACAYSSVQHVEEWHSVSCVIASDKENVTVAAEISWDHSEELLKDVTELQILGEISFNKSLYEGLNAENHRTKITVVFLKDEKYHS
T2 sequence (P26010 20-723, chain 2 of 2): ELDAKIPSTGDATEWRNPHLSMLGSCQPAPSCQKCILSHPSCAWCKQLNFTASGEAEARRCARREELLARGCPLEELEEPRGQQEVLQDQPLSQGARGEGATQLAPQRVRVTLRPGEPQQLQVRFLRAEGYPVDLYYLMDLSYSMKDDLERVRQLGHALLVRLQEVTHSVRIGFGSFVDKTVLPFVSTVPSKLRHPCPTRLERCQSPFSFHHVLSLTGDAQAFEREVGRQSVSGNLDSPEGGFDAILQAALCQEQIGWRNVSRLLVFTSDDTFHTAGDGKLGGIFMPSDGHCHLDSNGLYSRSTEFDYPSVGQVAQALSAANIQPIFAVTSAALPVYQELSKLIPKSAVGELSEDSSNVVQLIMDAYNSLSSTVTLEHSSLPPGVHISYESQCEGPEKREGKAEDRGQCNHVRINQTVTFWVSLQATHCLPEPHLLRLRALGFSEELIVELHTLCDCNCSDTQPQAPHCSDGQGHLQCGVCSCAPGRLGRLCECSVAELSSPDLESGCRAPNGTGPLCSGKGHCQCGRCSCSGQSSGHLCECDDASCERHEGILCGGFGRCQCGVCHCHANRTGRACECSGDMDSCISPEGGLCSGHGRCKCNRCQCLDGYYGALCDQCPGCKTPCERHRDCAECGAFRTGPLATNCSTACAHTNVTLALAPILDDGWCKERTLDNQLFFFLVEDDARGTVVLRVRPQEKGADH

B1: rhuMAb Beta7 (etrolizumab) (antibody, V domains shown)
VH: EVQLVESGGGLVQPGGSLRLSCAASGFFITNNYWGWVRQAPGKGLEWVGYISYSGSTSYNPSLKSRFTISRDTSKNTFYLQMNSLRAEDTAVYYCARTGSSGYFDFWGQGTLVTVSS
VL: DIQMTQSPSSLSASVGDRVTITCRASESVDDLLHWYQQKPGKAPKLLIKYASQSISGVPSRFSGSGSGTDFTLTISSLQPEDFATYYCQQGNSLPNTFGQGTKVEIKR
Regarding B1, the dissociation constant Kd in assay [1] is approximately 0.116 nM; in assay [2], approximately 1.8 nM.

Source of the values: patent US20210238288A1 (Genentech, published 2021).
